Data: patent EP4682166A1 (Guangzhou Enmai Biotechnology Co., Ltd, dated 2026)
Positions count from the first letter of the chain named. Numbers in names are those of the source. Values belong to the binder of their own block, whether it stands above or below them.

Key:
[1] = target: T1, human NMI (N-myc Interacting protein), recombinant protein (human, UniProt Q13287 1-307, limits assumed); experiment: ELISA EC50 against parent 240B10-1
T1 construct: Gene ID: 9111; also called hNMI; antigen
T1 sequence (looked up): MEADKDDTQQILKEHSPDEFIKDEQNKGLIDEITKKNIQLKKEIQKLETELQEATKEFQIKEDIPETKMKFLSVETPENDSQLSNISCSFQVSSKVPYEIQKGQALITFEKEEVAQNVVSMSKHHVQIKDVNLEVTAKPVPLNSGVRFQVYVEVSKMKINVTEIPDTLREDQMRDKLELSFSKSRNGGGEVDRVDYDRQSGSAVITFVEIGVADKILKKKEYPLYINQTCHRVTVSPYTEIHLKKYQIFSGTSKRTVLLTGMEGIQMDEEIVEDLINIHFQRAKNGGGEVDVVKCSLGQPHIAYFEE

[2] = target: T1, human NMI (N-myc Interacting protein), …; experiment: ELISA EC50 against parent 98G10
[3] = target: T1, human NMI (N-myc Interacting protein), …; experiment: ELISA, binding to hNMI

B14: 98G10-H-1 (antibody, V domains shown)
VH: QEQLEESGGDLVKPEGSLTLTCTASGFSFSASYHICWVRQAPGKGLEWIACIYGGSSGSAYYASWAKGRFTISKTSSTTVTLQMTSLTAADTATYFCARAGYYNYGSAGDIYPSSFKLWGPGTLVTVSS
VL: DIVMTQTPASVEAAVGGTVTINCQASQSISTALAWYQQKPGQPPKLLIYTASKVASGVPSRFSGSGSGTQFTLTISDLECADAATYYCQNYYYSSSSITFGGGTEVVVK
notes: also called 98G10 W34H (VH)
- Fold decrease in affinity [2]: 0.77 fold
- EC50 [3]: 0.024 µg/mL

B15: 98G10-H-9 (antibody, V domains shown)
VH: B14 VH with Y112L
VL: B14 VL
notes: also called 98G10 W34H, Y112L (VH)
- Fold decrease in affinity [2]: 10 fold
- EC50 [3]: 0.311 µg/mL

B16: 98G10-H-13 (antibody, V domains shown)
VH: B14 VH with H34K, Y112S
VL: B14 VL
notes: also called 98G10 W34K, Y112S (VH)
- Fold decrease in affinity [2]: 54.1 fold
- EC50 [3]: 1.68 µg/mL

B17: 98G10-H-12 (antibody, V domains shown)
VH: B14 VH with Y112S
VL: B14 VL
notes: also called 98G10 W34H, Y112S (VH)
- Fold decrease in affinity [2]: 2.61 fold
- EC50 [3]: 0.081 µg/mL

B19: 98G10-H-7 (antibody, V domains shown)
VH: B14 VH with H34R, Y112R
VL: B14 VL
notes: also called 98G10 W34R, Y112R (VH)
- Fold decrease in affinity [2]: 50.4 fold
- EC50 [3]: 1.56 µg/mL

B20: 98G10-H-6 (antibody, V domains shown)
VH: B14 VH with H34W, Y112Q
VL: B14 VL
notes: also called 98G10 Y112Q (VH)
- Fold decrease in affinity [2]: 2.97 fold
- EC50 [3]: 0.092 µg/mL

B21: 98G10-H-11 (antibody, V domains shown)
VH: B14 VH with Y112R
VL: B14 VL
notes: also called 98G10 W34H, Y112R (VH)
- Fold decrease in affinity [2]: 0.84 fold
- EC50 [3]: 0.026 µg/mL

B22: 98G10-H-5 (antibody, V domains shown)
VH: B14 VH with H34W, Y112E
VL: B14 VL
notes: also called 98G10 Y112E (VH)
- Fold decrease in affinity [2]: 59.7 fold
- EC50 [3]: 1.85 µg/mL

B23: 98G10-H-10 (antibody, V domains shown)
VH: B14 VH with H34T, Y112R
VL: B14 VL
notes: also called 98G10 W34T, Y112R (VH)
- Fold decrease in affinity [2]: 60 fold
- EC50 [3]: 1.86 µg/mL

B25: 98G10-L-1 (antibody, V domains shown)
VH: B14 VH with H34W
VL: B14 VL with Y93R
notes: also called 98G10 Y93R (VL)
- Fold decrease in affinity [2]: 2.81 fold
- EC50 [3]: 0.087 µg/mL

B26: 98G10-H-8 (antibody, V domains shown)
VH: B14 VH with H34D, Y112R
VL: B14 VL
notes: also called 98G10 W34D, Y112R (VH)
- Fold decrease in affinity [2]: 51.3 fold
- EC50 [3]: 1.59 µg/mL

B27: 98G10-H-3 (antibody, V domains shown)
VH: B14 VH with H34W, Y112R
VL: B14 VL
notes: also called 98G10 Y112R (VH)
- Fold decrease in affinity [2]: 0.9 fold
- EC50 [3]: 0.028 µg/mL

B28: 98G10-H-14 (antibody, V domains shown)
VH: B14 VH with H34D, Y112S
VL: B14 VL
notes: also called 98G10 W34D, Y112S (VH)
- Fold decrease in affinity [2]: 48.1 fold
- EC50 [3]: 1.49 µg/mL

B29: 98G10-H-4 (antibody, V domains shown)
VH: B14 VH with H34W, Y112S
VL: B14 VL
notes: also called 98G10 Y112S (VH)
- Fold decrease in affinity [2]: 2.65 fold
- EC50 [3]: 0.082 µg/mL

B30: 98G10-H-2 (antibody, V domains shown)
VH: B14 VH with H34Y
VL: B14 VL
notes: also called 98G10 W34Y (VH)
- Fold decrease in affinity [2]: 16.4 fold
- EC50 [3]: 0.507 µg/mL

Now from value to binder:

- Fold decrease in affinity [1]: > 500 fold
B1: 240B10-1 mutant D27K (VH) (antibody, V domains shown)
VH: QSLEESGGRLVTPGGSLTLTCTVSGIKLSSYTMGWVRQAPGKGLEYIGIISGGGRTYYASWAKGRFTISKTSSTTVDLKVTSLTTEDTATYFCARIYTLWGQGTLVTVSS
VL: QVLTQTLASVSAAVGGTVTINCQSSQSVYNNDYLAWFQQKSGQPPKQLIHSASKLASGVPSRFKGSGSGTQFTLTINDVQCDDAATYYCLGGYDCYSADCNVFGGGTEVVVK

- Fold decrease in affinity [1]: > 500 fold
B2: 240B10-1 mutant S29E (VH) (antibody, V domains shown)
VH: B1 VH with K27D, S29E
VL: B1 VL

- Fold decrease in affinity [1]: > 500 fold
B3: 240B10-1 mutant N30E (VL) (antibody, V domains shown)
VH: B1 VH with K27D
VL: B1 VL with N30E

- Fold decrease in affinity [1]: > 500 fold
B4: 240B10-1 mutant G52K (VH) (antibody, V domains shown)
VH: B1 VH with K27D, G52K
VL: B1 VL

- Fold decrease in affinity [1]: > 500 fold
B5: 240B10-1 mutant G52R (VH) (antibody, V domains shown)
VH: B1 VH with K27D, G52R
VL: B1 VL

- Fold decrease in affinity [1]: > 500 fold
B6: 240B10-1 mutant S29Q (VH) (antibody, V domains shown)
VH: B1 VH with K27D, S29Q
VL: B1 VL

- Fold decrease in affinity [1]: > 500 fold
B7: 240B10-1 mutant S29D (VH) (antibody, V domains shown)
VH: B1 VH with K27D, S29D
VL: B1 VL

- Fold decrease in affinity [1]: > 500 fold
B8: 240B10-1 mutant D27P (VH) (antibody, V domains shown)
VH: B1 VH with K27P
VL: B1 VL

- Fold decrease in affinity [1]: > 500 fold
B9: 240B10-1 mutant G52Q (VH) (antibody, V domains shown)
VH: B1 VH with K27D, G52Q
VL: B1 VL

- Fold decrease in affinity [1]: > 500 fold
B10: 240B10-1 mutant N30T (VL) (antibody, V domains shown)
VH: B1 VH with K27D
VL: B1 VL with N30T

- Fold decrease in affinity [1]: > 500 fold
B11: 240B10-1 mutant S30A (VH) (antibody, V domains shown)
VH: B1 VH with K27D, S30A
VL: B1 VL

- Fold decrease in affinity [1]: > 500 fold
B12: 240B10-1 mutant G52E (VH) (antibody, V domains shown)
VH: B1 VH with K27D, G52E
VL: B1 VL

- Fold decrease in affinity [1]: > 500 fold
B13: 240B10-1 mutant S30D (VH) (antibody, V domains shown)
VH: B1 VH with K27D, S30D
VL: B1 VL

- Fold decrease in affinity [2]: 2.13 fold
- EC50 [3]: 0.066 µg/mL
B18: 98G10-L-3 (antibody, V domains shown)
VH: B14 VH with H34W
VL: B14 VL with Y93Q
notes: also called 98G10 Y93Q (VL)

- Fold decrease in affinity [2]: 1.71 fold
- EC50 [3]: 0.053 µg/mL
B24: 98G10-L-2 (antibody, V domains shown)
VH: B14 VH with H34W
VL: B14 VL with Y93S
notes: also called 98G10 Y93S (VL)
